Ends that are not written are not given here. Glu = glucose (not glutamate); Rha = rhamnose
Assays:
[1] = molecular target: streptavidin (UniProt P22629); assay: panning/deep seq., Streptavadin rep 1
[2] = molecular target: streptavidin (UniProt P22629); assay: panning/deep seq., Streptavadin rep 2
[3] = molecular target: streptavidin (UniProt P22629); assay: panning/deep seq., Streptavadin rep 3
[4] = molecular target: streptavidin (UniProt P22629); assay: panning/deep seq., Ratio col 1 (Streptavadin/Blank by arithmetic)
[5] = molecular target: streptavidin (UniProt P22629); assay: panning/deep seq., Ratio col 2 (Streptavadin/Naive by arithmetic)
[6] = molecular target: streptavidin (UniProt P22629); assay: panning/deep seq., Ratio col 3 (Streptavadin/Bulk amplified by arithmetic)
[7] = molecular target: human Galectin-3 (Homo sapiens, UniProt P17931); assay: ELISA-like competition assay: inhibition of HRP-Lactose binding to surface-immobilized Galectin-3; conditions: for Times more potent than MeGal at inhibiting HRP-Lac binding to Galectin-3: versus MeGal
Chain of human Galectin-3 (P17931 whole entry, the tested form may be a part): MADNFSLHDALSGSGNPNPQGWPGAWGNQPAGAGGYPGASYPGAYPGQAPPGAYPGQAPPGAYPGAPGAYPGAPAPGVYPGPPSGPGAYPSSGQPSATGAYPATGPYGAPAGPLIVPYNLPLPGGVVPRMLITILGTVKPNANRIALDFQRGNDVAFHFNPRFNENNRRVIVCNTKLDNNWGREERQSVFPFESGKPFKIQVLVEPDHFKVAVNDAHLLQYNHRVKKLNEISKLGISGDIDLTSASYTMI
Text: Using an ELISA-like competition assay (FIGS. 12, 13), the binding activity of these glycopeptides to carbohydrate recognition domain (CRD) of the human Galectin-3 and their ability to compete with binding of Lactose-conjugated horseradish peroxidase (HRP), were validated (FIG. 12). As references, we used known Gal3 ligands, such as lactose, Methyl-β-D-galactopiranoside (MeGal) and tetrasaccharide Lacto-N-Tetraose (LNT).
FIG. 12 illustrates an evaluation of activity of hits identified from genetically-encoded libraries of glycopeptides against […]. The assay measures that inhibitory constant (denoted as Effective concentrations of half-maximal response or EC50) of compounds in the inhibition of the interaction between soluble HRP-Lactose and surface-immobilized Galectin-3.
The competitive activity is quantified as decrease in color development by HRP-lac conjugate bound to Galectin-3 coated at 10 μg/ml concentration on polystyrene 96-well plates.

[8] = molecular target: T1, human Galectin-3 protein (human, UniProt P17931 2-250, limits assumed); assay: ELISA-like competition with HRP-Lactose on Galectin-3 coated wells; reference MeGal
T1 construct: also called Gal3
T1 sequence (P17931 2-250 limits assumed): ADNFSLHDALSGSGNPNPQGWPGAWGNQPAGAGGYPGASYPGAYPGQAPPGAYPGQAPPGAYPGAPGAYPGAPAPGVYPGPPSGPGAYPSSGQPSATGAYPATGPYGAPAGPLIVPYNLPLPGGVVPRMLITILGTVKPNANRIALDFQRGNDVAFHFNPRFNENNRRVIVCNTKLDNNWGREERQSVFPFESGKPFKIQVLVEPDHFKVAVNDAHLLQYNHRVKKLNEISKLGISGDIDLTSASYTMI

[9] = molecular target: T2, Bovine carbonic anhydrase II (bovine, UniProt P00921 2-260); assay: panning/deep seq., Carbonic rep 1 [Carbonic Anhydrase]
T2 construct: Commercial protein; also called BCA
T2 sequence (P00921 2-260 limits assumed): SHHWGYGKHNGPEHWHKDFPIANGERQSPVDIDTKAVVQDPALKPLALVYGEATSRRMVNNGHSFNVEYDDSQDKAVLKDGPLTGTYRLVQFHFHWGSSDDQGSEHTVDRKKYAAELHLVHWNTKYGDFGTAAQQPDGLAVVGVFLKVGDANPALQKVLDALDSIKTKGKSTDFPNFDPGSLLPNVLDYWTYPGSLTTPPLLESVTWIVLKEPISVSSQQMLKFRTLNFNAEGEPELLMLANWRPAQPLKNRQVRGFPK

[10] = molecular target: T2, Bovine carbonic anhydrase II; assay: panning/deep seq., Carbonic rep 2 [Carbonic Anhydrase]
[11] = molecular target: T2, Bovine carbonic anhydrase II; assay: panning/deep seq., Carbonic rep 3 [Carbonic Anhydrase]
[12] = molecular target: T2, Bovine carbonic anhydrase II; assay: panning/deep seq., Ratio col 1 (Carbonic/Blank by arithmetic) [Carbonic Anhydrase]
[13] = molecular target: T2, Bovine carbonic anhydrase II; assay: panning/deep seq., Ratio col 2 (Carbonic/Naive by arithmetic) [Carbonic Anhydrase]
[14] = molecular target: T2, Bovine carbonic anhydrase II; assay: panning/deep seq., Ratio col 3 (Carbonic/Bulk amplified by arithmetic) [Carbonic Anhydrase]

Chain of streptavidin (P22629 37-163 limits assumed): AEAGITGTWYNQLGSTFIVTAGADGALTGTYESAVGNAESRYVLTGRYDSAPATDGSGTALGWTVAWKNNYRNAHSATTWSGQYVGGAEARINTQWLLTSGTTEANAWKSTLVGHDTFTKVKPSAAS

Substance | copy number [1] | copy number [2] | copy number [3] | Ratio [4] | Ratio [5] | Ratio [6] | copy number [9] | copy number [10] | copy number [11] | Ratio [12] | Ratio [13] | Ratio [14] | other results
Bio-AHPL (peptide) | 382 | 113 | 333 | 920 | 138 | 138 |  |  |  |  |  |  | 
Bio-GYTQ (peptide) | 240 | 227 | 147 | 682 | 68 | 614 |  |  |  |  |  |  | 
Bio-HFTN (peptide) | 246 | 135 | 98 | 532 | 532 | 68 |  |  |  |  |  |  | 
Bio-HKLN (peptide) | 95 | 98 | 72 | 294 | 88 | 12 |  |  |  |  |  |  | 
Bio-HLRV (peptide) | 58 | 110 | 168 | 373 | 373 | 56 |  |  |  |  |  |  | 
Bio-HMPR (peptide) | 118 | 121 | 71 | 344 | 52 | 44 |  |  |  |  |  |  | 
Bio-HPSY (peptide) | 85 | 214 | 104 | 448 | 67 | 58 |  |  |  |  |  |  | 
Bio-PALP (peptide) | 125 | 108 | 210 | 492 | 492 | 89 |  |  |  |  |  |  | 
Bio-PFVQ (peptide) | 82 | 61 | 54 | 219 | 219 | 99 |  |  |  |  |  |  | 
Bio-PHLP (peptide) | 84 | 37 | 123 | 271 | 14 | 15 |  |  |  |  |  |  | 
Bio-PHYN (peptide) | 53 | 110 | 70 | 259 | 21 | 58 |  |  |  |  |  |  | 
Bio-PLAQ (peptide) | 110 | 71 | 50 | 257 | 38 | 33 |  |  |  |  |  |  | 
Bio-PQMS (peptide) | 282 | 248 | 453 | 1090 | 41 | 197 |  |  |  |  |  |  | 
Bio-PSIG (peptide) | 145 | 125 | 174 | 493 | 21 | 56 |  |  |  |  |  |  | 
Bio-PTHT (peptide) | 154 | 178 | 118 | 500 | 75 | 64 |  |  |  |  |  |  | 
Bio-PVSI (peptide) | 75 | 94 | 128 | 330 | 49 | 74 |  |  |  |  |  |  | 
Bio-VHAW (peptide) | 73 | 39 | 119 | 257 | 257 | 38 |  |  |  |  |  |  | 
Bio-VHNT (peptide) | 29 | 87 | 110 | 251 | 75 | 75 |  |  |  |  |  |  | 
Bio-WYPH (peptide) | 85 | 150 | 127 | 402 | 121 | 72 |  |  |  |  |  |  | 
Bio-YMNN (peptide) | 110 | 134 | 40 | 316 | 24 | 142 |  |  |  |  |  |  | 
Gal-PAPT: Galactose modified glycopeptide, SEQ ID NO:105 |  |  |  |  |  |  |  |  |  |  |  |  | EC50 ([7]; FIG. 12, read-out: EC50, inhibition of interaction between soluble HRP-Lactose and surface-immobilized Galectin-3): 14 µM

Substance | copy number [1] | copy number [2] | copy number [3] | Ratio [4] | Ratio [5] | Ratio [6] | copy number [9] | copy number [10] | copy number [11] | Ratio [12] | Ratio [13] | Ratio [14] | other results
Glu-SIYG (glucose-modified tetramer peptide) |  |  |  |  |  |  |  |  |  |  |  |  | fold higher potency than MeGal [8]: 10 fold
Glu-SIYG: combination of glucose and tetramer peptide, SEQ ID NO:106 (also: residue 1 modified with glucose, attachment not given here) |  |  |  |  |  |  |  |  |  |  |  |  | Times more potent than MeGal at inhibiting HRP-Lac binding to Galectin-3 [7]: 10 times
Rha-IWVR: Rhamnose-peptide conjugate, SEQ ID NO:108 (also: residue 1 conjugated with rhamnose, attachment not given here) |  |  |  |  |  |  |  |  |  |  |  |  | Potency in HRP-Lac competition compared in words with a control ([7]; comparison with Lactose, MeGal or LNT): in the same order of the LNT; Times better than Lactose at inhibiting HRP-Lac binding to Galectin-3 ([7]; versus Lactose): 10 times; Times more potent than MeGal at inhibiting HRP-Lac binding to Galectin-3 [7]: 400 times
SA-QIEH (peptide) |  |  |  |  |  |  | 35 | 20 | 27 | 91 | 3 | 2 | 
SA-TAFI (peptide) |  |  |  |  |  |  | 44 | 58 | 48 | 167 | 167 | 75 | 
SA-WFKL (peptide) |  |  |  |  |  |  | 3 | 5 | 2 | 11 | 11 | 11 | 
SA-WKQQ (peptide) |  |  |  |  |  |  | 3 | 2 | 4 | 10 | 10 | 10 | 
SA-WLVL (peptide) |  |  |  |  |  |  | 4 | 4 | 3 | 12 | 12 | 12 | 
SA-WNSK (peptide) |  |  |  |  |  |  | 3 | 4 | 2 | 10 | 10 | 10 | 
SA-WNTK (peptide) |  |  |  |  |  |  | 121 | 256 | 228 | 672 | 19 | 38 | 
SA-WPPP (peptide) |  |  |  |  |  |  | 10 | 10 | 15 | 39 | 6 | 35 | 
SA-WPPY (peptide) |  |  |  |  |  |  | 17 | 16 | 20 | 59 | 4 | 5 | 
SA-WQQQ (peptide) |  |  |  |  |  |  | 403 | 422 | 596 | 1580 | 178 | 102 | 
SA-WSVM (peptide) |  |  |  |  |  |  | 3 | 2 | 4 | 10 | 10 | 10 | 
SA-WTSG (peptide) |  |  |  |  |  |  | 63 | 30 | 46 | 154 | 9 | 11 | 
SA-WTWL (peptide) |  |  |  |  |  |  | 43 | 57 | 26 | 140 | 140 | 21 | 
SA-WTYW (peptide) |  |  |  |  |  |  | 18 | 33 | 15 | 73 | 6 | 8 | 
SA-WYKL (peptide) |  |  |  |  |  |  | 862 | 1160 | 285 | 2560 | 288 | 121 | 
SA-YGTH (peptide) |  |  |  |  |  |  | 50 | 118 | 63 | 257 | 26 | 7 | 
SA-YMSN (peptide) |  |  |  |  |  |  | 51 | 25 | 53 | 143 | 143 | 10 | 
SA-YQYS (peptide) |  |  |  |  |  |  | 154 | 194 | 51 | 443 | 44 | 44 | 
